Results published in patent publication US20220213456.

Key:
[1] = system: T1, OMNI-36 (Blastopirellula marina); assay: cleavage_in_vitro; details: TXTL; PAM NNYCCC; V1, V2 tested
T1 sequence: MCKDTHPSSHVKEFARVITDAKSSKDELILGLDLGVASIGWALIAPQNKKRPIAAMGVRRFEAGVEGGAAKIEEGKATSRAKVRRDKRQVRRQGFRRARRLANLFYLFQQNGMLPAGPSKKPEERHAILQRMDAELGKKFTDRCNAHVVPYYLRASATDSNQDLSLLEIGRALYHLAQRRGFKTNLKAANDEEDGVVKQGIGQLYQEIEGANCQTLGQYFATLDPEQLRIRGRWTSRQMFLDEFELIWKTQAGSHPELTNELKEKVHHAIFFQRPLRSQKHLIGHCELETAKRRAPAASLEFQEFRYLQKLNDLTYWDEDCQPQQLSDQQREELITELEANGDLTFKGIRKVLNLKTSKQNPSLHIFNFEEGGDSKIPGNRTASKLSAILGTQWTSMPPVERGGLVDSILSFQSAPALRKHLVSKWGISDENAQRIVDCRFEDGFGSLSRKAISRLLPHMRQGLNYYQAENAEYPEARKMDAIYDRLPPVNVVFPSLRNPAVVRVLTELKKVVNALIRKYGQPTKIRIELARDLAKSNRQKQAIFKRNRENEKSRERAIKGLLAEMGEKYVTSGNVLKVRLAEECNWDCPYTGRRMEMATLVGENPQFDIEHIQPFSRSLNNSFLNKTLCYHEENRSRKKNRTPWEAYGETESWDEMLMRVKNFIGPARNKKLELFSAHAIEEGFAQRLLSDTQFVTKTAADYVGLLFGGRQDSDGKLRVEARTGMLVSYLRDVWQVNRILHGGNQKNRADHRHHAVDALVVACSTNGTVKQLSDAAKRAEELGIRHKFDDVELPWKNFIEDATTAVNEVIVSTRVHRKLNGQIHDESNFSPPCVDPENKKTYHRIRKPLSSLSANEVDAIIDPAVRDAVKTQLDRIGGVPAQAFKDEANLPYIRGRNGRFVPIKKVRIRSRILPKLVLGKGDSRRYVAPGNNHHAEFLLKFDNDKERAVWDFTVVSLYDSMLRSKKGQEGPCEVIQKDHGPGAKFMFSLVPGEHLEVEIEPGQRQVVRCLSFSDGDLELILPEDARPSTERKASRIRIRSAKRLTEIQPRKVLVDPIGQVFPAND

[2] = system: T2, OMNI-53 (Clostridium sp. AF02-29); assay: cell_activity; details: E. coli plasmid depletion; PAM NRTA
T2 sequence: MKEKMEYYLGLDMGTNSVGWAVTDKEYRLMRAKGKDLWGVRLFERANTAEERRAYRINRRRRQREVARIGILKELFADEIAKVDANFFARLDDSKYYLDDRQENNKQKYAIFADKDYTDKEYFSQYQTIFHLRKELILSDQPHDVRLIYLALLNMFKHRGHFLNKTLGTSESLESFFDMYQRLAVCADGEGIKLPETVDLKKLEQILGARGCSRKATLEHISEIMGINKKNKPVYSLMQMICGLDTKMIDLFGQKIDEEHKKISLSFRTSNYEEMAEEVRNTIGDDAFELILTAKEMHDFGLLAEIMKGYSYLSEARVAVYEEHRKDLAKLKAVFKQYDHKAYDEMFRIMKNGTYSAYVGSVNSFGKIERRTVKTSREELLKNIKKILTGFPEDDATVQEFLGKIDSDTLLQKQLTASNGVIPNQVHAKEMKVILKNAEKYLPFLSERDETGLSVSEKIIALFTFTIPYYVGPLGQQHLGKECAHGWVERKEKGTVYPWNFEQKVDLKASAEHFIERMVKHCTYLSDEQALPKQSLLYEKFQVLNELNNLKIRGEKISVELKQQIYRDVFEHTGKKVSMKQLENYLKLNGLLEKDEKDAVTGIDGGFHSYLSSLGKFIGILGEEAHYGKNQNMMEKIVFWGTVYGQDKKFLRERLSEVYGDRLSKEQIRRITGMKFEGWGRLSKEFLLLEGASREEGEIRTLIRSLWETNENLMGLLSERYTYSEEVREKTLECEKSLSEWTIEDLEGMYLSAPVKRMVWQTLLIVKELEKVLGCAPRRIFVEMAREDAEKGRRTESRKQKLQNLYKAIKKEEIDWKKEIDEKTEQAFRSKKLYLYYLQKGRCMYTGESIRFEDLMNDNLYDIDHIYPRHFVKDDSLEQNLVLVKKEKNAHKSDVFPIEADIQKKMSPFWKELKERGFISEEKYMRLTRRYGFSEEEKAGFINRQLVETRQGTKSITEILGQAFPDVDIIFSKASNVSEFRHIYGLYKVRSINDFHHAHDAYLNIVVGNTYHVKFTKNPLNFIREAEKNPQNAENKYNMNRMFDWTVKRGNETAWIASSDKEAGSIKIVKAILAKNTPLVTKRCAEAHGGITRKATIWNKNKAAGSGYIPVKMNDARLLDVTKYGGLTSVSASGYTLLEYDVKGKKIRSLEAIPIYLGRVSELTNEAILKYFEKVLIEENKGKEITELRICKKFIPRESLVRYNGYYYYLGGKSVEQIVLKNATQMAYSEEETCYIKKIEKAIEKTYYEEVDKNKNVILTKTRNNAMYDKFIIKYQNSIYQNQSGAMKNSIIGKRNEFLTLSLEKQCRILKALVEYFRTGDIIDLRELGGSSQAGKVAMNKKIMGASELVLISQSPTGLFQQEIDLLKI

[3] = system: T2, OMNI-53 (Clostridium sp. AF02-29); assay: cleavage_in_vitro; details: TXTL; PAM NRHR (specific NAWA)
[4] = system: T3, OMNI-39 (Butyrivibrio sp. AC2005); assay: cell_activity; details: E. coli plasmid depletion; PAM NNGYAD (specific NNGYAA)
T3 sequence: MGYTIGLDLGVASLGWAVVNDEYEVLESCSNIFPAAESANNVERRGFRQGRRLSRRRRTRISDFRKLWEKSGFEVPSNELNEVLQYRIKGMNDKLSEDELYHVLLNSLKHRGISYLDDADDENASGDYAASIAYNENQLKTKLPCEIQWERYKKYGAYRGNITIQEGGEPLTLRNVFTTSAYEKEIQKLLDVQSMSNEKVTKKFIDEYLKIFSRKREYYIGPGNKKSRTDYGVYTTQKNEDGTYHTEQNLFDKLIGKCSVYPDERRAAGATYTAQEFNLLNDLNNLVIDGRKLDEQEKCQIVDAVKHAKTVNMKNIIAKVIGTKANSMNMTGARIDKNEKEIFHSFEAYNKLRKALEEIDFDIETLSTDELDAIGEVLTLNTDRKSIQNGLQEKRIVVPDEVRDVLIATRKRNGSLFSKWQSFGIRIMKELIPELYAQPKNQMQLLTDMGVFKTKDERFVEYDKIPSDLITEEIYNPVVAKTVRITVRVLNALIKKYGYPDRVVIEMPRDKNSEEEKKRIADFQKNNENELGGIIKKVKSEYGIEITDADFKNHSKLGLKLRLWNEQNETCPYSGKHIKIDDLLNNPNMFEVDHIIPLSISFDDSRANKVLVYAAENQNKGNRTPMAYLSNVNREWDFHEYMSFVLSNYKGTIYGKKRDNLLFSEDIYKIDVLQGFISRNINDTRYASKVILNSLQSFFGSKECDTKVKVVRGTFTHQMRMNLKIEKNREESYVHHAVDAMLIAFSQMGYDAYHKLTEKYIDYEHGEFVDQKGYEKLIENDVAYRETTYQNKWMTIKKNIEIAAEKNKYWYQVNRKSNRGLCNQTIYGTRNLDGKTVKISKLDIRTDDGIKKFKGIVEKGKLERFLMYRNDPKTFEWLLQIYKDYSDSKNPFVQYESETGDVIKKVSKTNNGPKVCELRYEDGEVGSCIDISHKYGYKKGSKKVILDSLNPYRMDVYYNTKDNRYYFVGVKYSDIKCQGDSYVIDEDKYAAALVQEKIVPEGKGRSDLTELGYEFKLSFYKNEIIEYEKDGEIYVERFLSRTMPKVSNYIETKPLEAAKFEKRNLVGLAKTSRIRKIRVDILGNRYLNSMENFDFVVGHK

[5] = system: T3, OMNI-39 (Butyrivibrio sp. AC2005); assay: cleavage_in_vitro; details: TXTL; PAM NNGHAD (specific NNGYAA)
[6] = system: T4, OMNI-40 (bacterium LF-3); assay: cell_activity; details: E. coli plasmid depletion; PAM NYGRV (specific NYGAV)
T4 sequence: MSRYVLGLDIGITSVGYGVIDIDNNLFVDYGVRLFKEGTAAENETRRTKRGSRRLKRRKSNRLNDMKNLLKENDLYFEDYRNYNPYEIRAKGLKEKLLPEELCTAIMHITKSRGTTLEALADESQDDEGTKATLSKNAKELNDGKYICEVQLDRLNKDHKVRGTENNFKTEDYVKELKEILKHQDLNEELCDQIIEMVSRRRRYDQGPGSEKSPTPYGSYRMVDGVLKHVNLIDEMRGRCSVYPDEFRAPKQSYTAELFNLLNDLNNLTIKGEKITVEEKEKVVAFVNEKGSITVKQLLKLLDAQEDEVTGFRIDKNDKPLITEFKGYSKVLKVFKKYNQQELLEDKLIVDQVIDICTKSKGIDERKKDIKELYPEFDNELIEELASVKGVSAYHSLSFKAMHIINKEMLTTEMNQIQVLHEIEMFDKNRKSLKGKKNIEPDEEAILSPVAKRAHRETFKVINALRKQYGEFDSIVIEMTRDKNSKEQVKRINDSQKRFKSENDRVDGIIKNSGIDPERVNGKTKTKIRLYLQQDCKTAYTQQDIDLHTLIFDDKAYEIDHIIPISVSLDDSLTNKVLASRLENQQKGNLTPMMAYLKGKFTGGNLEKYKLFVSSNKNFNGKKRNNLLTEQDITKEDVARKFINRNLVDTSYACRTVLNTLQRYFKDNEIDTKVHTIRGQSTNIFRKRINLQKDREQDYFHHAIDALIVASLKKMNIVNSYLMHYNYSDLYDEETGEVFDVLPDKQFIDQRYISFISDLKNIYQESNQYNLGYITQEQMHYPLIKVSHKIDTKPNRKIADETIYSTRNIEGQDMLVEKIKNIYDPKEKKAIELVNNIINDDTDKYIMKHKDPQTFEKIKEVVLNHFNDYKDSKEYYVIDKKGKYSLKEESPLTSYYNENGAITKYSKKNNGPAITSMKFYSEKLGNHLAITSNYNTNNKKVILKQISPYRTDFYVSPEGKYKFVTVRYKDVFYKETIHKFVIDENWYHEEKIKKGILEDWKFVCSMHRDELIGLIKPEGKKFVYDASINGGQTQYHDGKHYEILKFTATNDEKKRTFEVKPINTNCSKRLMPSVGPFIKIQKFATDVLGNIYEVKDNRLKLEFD

[7] = system: T4, OMNI-40 (bacterium LF-3); assay: cleavage_in_vitro; details: TXTL; PAM NYGRV

## GGAAGAGCAGAGCCUUGGUCUCGCUGUGGCUUGGAGGGAAUCGUGAAAACGAUUGCUUCGCAAGUCAUAGUAAAGCAAUAGUCAGCGAAAGGUUUGCUCACGGAGCAUUCCGUCGAGUACCCUUUGACGCCUCCCAGCGGGGCGUCUUUUUUU / GGAAGAGCAGAGCCTTGGTCTCNNNNNNNN / NNNNNNNNGAGACCAAGGCTCTGCTCTTCC [OMNI-36 T2 sgRNA V1 ; pbPOS T2 protospacer 8N PAM library]
[1]
  activity (1-depletion score): 0.99

## GGAAGAGCAGAGCCUUGGUCUCGUUUGAGAACCAUGGAAACAUGGUGAGUGCAAAUAAGGAUUAUCCGAAAUUGUAUGCCCGCAUUGUGCGGCAAUAAAAAGGCUCGAAAGAGUCUUUUU / GGAAGAGCAGAGCCTTGGTCTCNNNNNNNN / NNNNNNNNGAGACCAAGGCTCTGCTCTTCC [OMNI-53 T2 sgRNA V1 ; pbPOS T2 protospacer 8N PAM library]
[2]
  activity (1-depletion score): 1
[3]
  activity (1-depletion score): 0.97

## GGAAGAGCAGAGCCUUGGUCUCGUUUUAGUACCUAGAGAAAGAAAUUUCUUUAGACCUACUAAAAUAAGGCUUUAUGCCGAGAUUAAAGGAUGCCGACGGGCAUCCUUUUUU / GGAAGAGCAGAGCCTTGGTCTCNNNNNNNN / NNNNNNNNGAGACCAAGGCTCTGCTCTTCC [OMNI-39 T2 sgRNA V2 ; pbPOS T2 protospacer 8N PAM library]
[4]
  activity (1-depletion score): 0.99
[5]
  activity (1-depletion score): 0.95

## GGAAGAGCAGAGCCUUGGUCUCGUUUUGUUACCAUAUGAUUGAAAAUUUAUAUGACCUAACAAAACAAGGGUUUAUCCCGGACUCGGCUCUUCGGAGCCUUUUU / GGAAGAGCAGAGCCTTGGTCTCNNNNNNNN / NNNNNNNNGAGACCAAGGCTCTGCTCTTCC [OMNI-40 T2 sgRNA V2 ; pbPOS T2 protospacer 8N PAM library]
[6]
  activity (1-depletion score): 0.95
[7]
  activity (1-depletion score): 0.97
